Reference: patent US5622828, “High-affinity oligonucleotide ligands to secretory phospholipase A2 (sPLA2)” (Nexstar Pharmaceuticals, Inc.)
Like-named read-outs stand apart in the source and are kept apart here.

Legend:
[1] = molecular target: T1, basic fibroblast growth factor (bFGF) (Homo sapiens, UniProt P09038 P09038:143-288); test: filter; specificity control, like random RNA; TBSC
Protocol: (§1) The affinity of sPLA_2 ligands 2, 72, 80, 87, NN19 and NN19.15 (SEQ ID NOs.:11, 20, 53, 54, 64, and 117, respectively) for proteins other than sPLA_2 was determined by nitrocellulose partitioning (Tables IV and V). Like sPLA_2, hen egg white lysozyme, bFGF and elastase are small, highly cationic proteins. Bovine pancreatic PLA_2 is an evolutionarily and structurally related enzyme. […] Specificity is particularly well illustrated by the affinities for bovine pancreatic PLA_2 which is 10^4-fold less than that for human sPLA_2.
(§2) *Standard binding experiments were performed to the specified target protein in TBSC and K_d's is calculated by curve fitting. The ligands bind no better than randomized RNA (30N1) to lysozyme (hen egg-white), human basic fibroblast growth factor basic (bFGF) and bovine pancreatic PLA₂. The sPLA₂ K_d that of the high affinity species.

[2] = molecular target: pancreatic phospholipase A2 (bpPLA2) (Bos taurus, UniProt P00593 P00593:23-145); test: filter; specificity control, like random RNA; TBSC
Sequence of pancreatic phospholipase A2 (bpPLA2) (P00593 23-145, one chain of several): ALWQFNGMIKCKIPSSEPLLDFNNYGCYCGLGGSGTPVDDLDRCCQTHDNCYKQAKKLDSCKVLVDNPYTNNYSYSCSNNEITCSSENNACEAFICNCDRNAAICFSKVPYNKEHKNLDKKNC
Protocol: as §1, §2

[3] = molecular target: lysozyme (egg white) (Gallus gallus, UniProt P00698 P00698:19-147); test: filter; specificity control, like random RNA; TBSC; conditions: tags: 6x crystallized
Sequence of lysozyme (egg white) (P00698 19-147, one chain of several): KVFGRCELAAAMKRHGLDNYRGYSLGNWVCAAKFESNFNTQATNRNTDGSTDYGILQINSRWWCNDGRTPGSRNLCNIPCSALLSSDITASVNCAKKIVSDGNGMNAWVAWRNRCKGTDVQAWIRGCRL
Protocol: as §1, §2

[4] = molecular target: T2, secretory phospholipase A2 (sPLA2) (Homo sapiens, UniProt P14555 P14555:21-144); test: filter; biphasic, Kd2 270 nM, mole fraction 0.13; Table III prints SEQ 103, Table IV SEQ 20; TBSC, 37 C; conditions: tags: supplied by Eli Lilly
T2 sequence: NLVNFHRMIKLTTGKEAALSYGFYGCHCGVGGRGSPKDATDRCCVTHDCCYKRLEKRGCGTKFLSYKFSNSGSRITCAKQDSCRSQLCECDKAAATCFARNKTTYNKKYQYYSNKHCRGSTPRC
Protocol: (§3) The nitrocellulose filter partitioning method was used as described in SELEX Patent Applications to determine the affinity of RNA ligands for sPLA_2 and for other promins. Filter discs (nitrocellulose/cellulose acetate mixed matrix, 0.45 µm pore size, Millipore) were placed on a vacuum manifold and washed with 5 ml of TBSC buffer under vacuum. Reaction mixtures, containing ^32P labeled RNA pools and sPLA_2, were incubated in TBSC for 5 minutes at 37° C., filtered, and then immediately washed with 5 ml TBSC. The filters were air-dried and counted in a Beckman liquid scintillation counter without fluor.
(§4) The dissociation constants for representative members of families I–VI, orphan and other ligands were determined by nitrocellulose filter binding experiments and are listed in Table III. Unlike random RNA, all tested ligands from the 2'OH SELEXes bound biphasically.

[5] = molecular target: T1, basic fibroblast growth factor (bFGF); test: filter; specificity control, like random RNA; TBSC; remark: listed apart in the source
Protocol: as §1
(§5) *Standard binding experiments were performed to the specified target protein in TBSC and K_d's calculated by curve fitting. The ligands bind no better than randomized RNA (30N1) to human neutrophil elastase, human basic fibroblast growth factor (bFGF), and human immunoglobulin G (IgG and C1q).

[6] = molecular target: neutrophil elastase (Homo sapiens, UniProt P08246 P08246:30-267); test: filter; specificity control, like random RNA; TBSC
Sequence of neutrophil elastase (P08246 30-267, one chain of several): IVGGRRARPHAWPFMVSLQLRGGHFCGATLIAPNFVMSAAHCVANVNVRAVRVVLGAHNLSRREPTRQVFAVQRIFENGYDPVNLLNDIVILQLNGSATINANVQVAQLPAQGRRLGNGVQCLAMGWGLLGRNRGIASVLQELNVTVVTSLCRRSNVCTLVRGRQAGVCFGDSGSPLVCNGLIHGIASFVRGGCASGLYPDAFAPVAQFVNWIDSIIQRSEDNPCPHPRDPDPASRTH
Protocol: as §1, §5

[7] = molecular target: T2, secretory phospholipase A2 (sPLA2); test: filter; monophasic; Table V prints 1 nM; TBSC, 37 C; conditions: tags: supplied by Eli Lilly; hairpin with asymmetric internal loop
[8] = molecular target: T2, secretory phospholipase A2 (sPLA2); test: filter; biphasic, Kd2 140 nM, mole fraction 0.65; TBSC, 37 C; conditions: tags: supplied by Eli Lilly
Protocol: as §3, §4

[9] = molecular target: T2, secretory phospholipase A2 (sPLA2); test: filter; biphasic, Kd2 82 nM, mole fraction 0.50; TBSC, 37 C; conditions: tags: supplied by Eli Lilly
Protocol: as §3, §4

[10] = molecular target: T2, secretory phospholipase A2 (sPLA2); test: filter; Table V prints 0.4 nM; TBSC, 37 C; conditions: tags: supplied by Eli Lilly
[11] = molecular target: C1q (printed Clq) (Homo sapiens, UniProt P02745;P02746;P02747 P02745:23-245,P02746:28-253,P02747:29-245); test: filter; specificity control, like random RNA; TBSC; conditions: chain copies: 6
Sequence of C1q (printed Clq) (P02745 23-245, chain 1 of 3): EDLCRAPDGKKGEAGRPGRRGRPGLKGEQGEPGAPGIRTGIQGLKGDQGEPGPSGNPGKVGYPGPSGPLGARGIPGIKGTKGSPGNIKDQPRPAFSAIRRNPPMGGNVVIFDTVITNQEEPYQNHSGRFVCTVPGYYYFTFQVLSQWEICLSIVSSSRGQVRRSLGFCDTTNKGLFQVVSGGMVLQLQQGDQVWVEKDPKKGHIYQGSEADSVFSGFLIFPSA
Sequence of C1q (printed Clq) (P02746 28-253, chain 2 of 3): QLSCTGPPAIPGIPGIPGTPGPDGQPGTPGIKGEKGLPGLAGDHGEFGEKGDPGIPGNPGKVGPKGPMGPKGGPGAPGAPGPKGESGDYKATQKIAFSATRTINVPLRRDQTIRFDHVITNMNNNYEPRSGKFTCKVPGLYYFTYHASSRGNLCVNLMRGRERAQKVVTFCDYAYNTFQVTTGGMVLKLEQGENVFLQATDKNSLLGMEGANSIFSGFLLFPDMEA
Sequence of C1q (printed Clq) (P02747 29-245, chain 3 of 3): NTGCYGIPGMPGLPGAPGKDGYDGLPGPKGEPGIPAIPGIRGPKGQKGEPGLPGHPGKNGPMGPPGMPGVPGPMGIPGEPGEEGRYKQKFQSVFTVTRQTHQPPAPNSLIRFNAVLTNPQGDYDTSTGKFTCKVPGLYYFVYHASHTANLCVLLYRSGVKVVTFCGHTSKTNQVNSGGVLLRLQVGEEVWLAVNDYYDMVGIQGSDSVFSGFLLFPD
Protocol: as §1, §5

[12] = molecular target: T2, secretory phospholipase A2 (sPLA2); test: filter; biphasic, Kd2 92 nM, mole fraction 0.60; TBSC, 37 C; conditions: tags: supplied by Eli Lilly
Protocol: as §3, §4

[13] = molecular target: T2, secretory phospholipase A2 (sPLA2); test: filter; biphasic, Kd2 350 nM, mole fraction 0.70; TBSC, 37 C; conditions: tags: supplied by Eli Lilly
Protocol: as §3, §4

[14] = molecular target: T2, secretory phospholipase A2 (sPLA2); test: filter; biphasic, Kd2 240 nM, mole fraction 0.50; TBSC, 37 C; conditions: tags: supplied by Eli Lilly
Protocol: as §3, §4

[15] = molecular target: T2, secretory phospholipase A2 (sPLA2); test: filter; biphasic, Kd2 200 nM, mole fraction 0.20; calcium dependent; TBSC, 37 C; conditions: tags: supplied by Eli Lilly
Protocol: as §3, §4

[16] = molecular target: T2, secretory phospholipase A2 (sPLA2); test: filter; biphasic, Kd2 150 nM, mole fraction 0.2; conserved G replaced by U; TBSC, 37 C; conditions: tags: supplied by Eli Lilly; hairpin with asymmetric internal loop
Protocol: as §3, §4

[17] = hairpin with asymmetric internal loop

T1 sequence (P09038 143-288, one chain of several): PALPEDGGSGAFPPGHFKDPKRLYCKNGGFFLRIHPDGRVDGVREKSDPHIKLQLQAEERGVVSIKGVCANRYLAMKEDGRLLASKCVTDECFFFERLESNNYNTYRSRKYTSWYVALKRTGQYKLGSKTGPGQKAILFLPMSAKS

B1: 72 (ssRNA)
RNA: GGGAGCUCAGAAUAAACGCUCAAGACCUCUGCUUACAGCCCGGCUGAGACACUUCGACAUGAGGCCCGGAUCCGGC
- Kd [1]: 180 nM
- Kd [2]: 29000 nM
- Kd [3]: 1500 nM
- Kd [4]: 0.5 nM

B2: NN19 (ssRNA)
RNA: GGGAAAAGCGAAUCAUACACAAGACCGGCCGGCGCCAUAGCCGAGAUCCGAGGUGUUGAACGAUAACUCGGUGCUCCGCCAGAGACCAACCGAGAA
modifications: 2'-NH2 all C and U
- Kd [5, 17]: 210 nM
- Kd [6, 17]: 40 nM
- Kd [7]: 0.4 nM

B3: 95 (ssRNA)
RNA: GGGAGCUCAGAAUAAACGCUCAACGCUGGAUACCAUCGCACGGCGUAUCCUGCUUCGACAUGAGGCCCGGAUCCGGC
- Kd [8]: 4.5 nM

B4: 93 (ssRNA)
RNA: GGGAGCUCAGAAUAAACGCUCAACAGCCAAUGUGUCCCGUACGGCGUAUCCUAUUCGACAUGAGGCCCGGAUCCGGC
- Kd [9]: 17.2 nM

B5: NN19.15 (ssRNA)
RNA: GGGAAAAGAAGACCGGCCGGCGCCAUAGCCGAGAUCCGAGGUGUUGCCGAGAA
modifications: 2'-NH2 all C and U
- Kd [10]: 1.7 nM
- Kd [11]: 1000 nM
- Kd [5]: 165 nM
- Kd [6]: 40 nM

B6: 85 (ssRNA)
RNA: GGGAGCUCAGAAUAAACGCUCAAAUUGCAUCAUGUACCGCAAGACGUAUUCUAUUCGACAUGAGGCCCGGAUCCGGC
- Kd [12]: 3.8 nM

B7: 54 (ssRNA)
RNA: GGGAGCUCAGAAUAAACGCUCAAAUUGCAUCAUGUACCGUAAGACGUAUUCUAUUCGACAUGAGGCCCGGAUCCGGC
- Kd [13]: 16.6 nM

B8: 18 (ssRNA)
RNA: GGGAGCUCAGAAUAAACGCUCAAAUCGCAUCAUGUACCGCAAGACGUAUUCUAUUCGACAUGAGGCCCGGAUCCGGC
- Kd [14]: 5 nM

B9: 60 (orphan) (ssRNA)
RNA: GGGAGCUCAGAAUAAACGCUCAAACAACGGCCCACACGGGAGAUCCGAGAAAAGUUCGACAUGAGGCCCGGAUCCGGC
- Kd [15]: 0.3 nM

B10: NN27 (ssRNA)
RNA: GGGAAAAGCGAAUCAUACACAAGACCGGCCGGGGAAACCCGAGGUCCGAUGUAACGCAUGGCGCCUCACCGAGUCGCUCCGCCAGAGACCAACCGAGAA
modifications: 2'-NH2 all C and U
- Kd [16]: 0.4 nM
